Consider seven sequences from publication PMC6426608.

Common to all, as to assay: EMSA
What all share (conditions): EMSA: 40 ng probe in 20 ul of 10 mM Tris-HCl pH 7.4, 50 mM KCl, 5 mM MgCl2, 10% glycerol; room temperature 20 min; 6% PAGE, DNA dye

Data set [1] has as its system T1, RhpR (Pseudomonas savastanoi pv. phaseolicola 1448A), ORF:976030cf.
T1 sequence: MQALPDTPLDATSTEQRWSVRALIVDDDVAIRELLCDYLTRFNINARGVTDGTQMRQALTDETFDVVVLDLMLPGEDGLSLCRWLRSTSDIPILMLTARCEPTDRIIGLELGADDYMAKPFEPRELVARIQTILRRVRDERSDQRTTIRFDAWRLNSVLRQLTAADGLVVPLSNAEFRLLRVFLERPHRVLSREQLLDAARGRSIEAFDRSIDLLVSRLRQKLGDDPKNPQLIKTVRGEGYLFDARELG

The test system of data set [2] is T2, RhpR D70E D70E (Pseudomonas savastanoi pv. phaseolicola 1448A), ORF:976030cf.
T2 sequence: T1 sequence with D70E

Data set [3] concerns T3, RhpR D70A D70A (Pseudomonas savastanoi pv. phaseolicola 1448A), ORF:976030cf.
T3 sequence: T1 sequence with D70A

Changes are numbered by the printed parent chain.

Take “TTCTCGAGTGAAATATCGACCTGAGGAAATTGCCCCTTTGATAATAGGACTCGCATGTATAATACCGGCCAAAACCGGACCAGCCGCCATTAACTTCTCTTCATGTAACGGCCATATCACCCCCGACTTGAACCGCCTTTTACTGCGTATATTTCGCGACGCTCCAGCACTGGAAACGCCCGGGATCCAA (double strand) [ccmA-ΔIR promoter]”: the binding entry in data set [1] is listed as “no binding”.
With “TTCTCGAGTGAAATATCGACCTGAGGAAATTGCCCCTTTGATAATAGGACTCGCATGTATAATACCGGCCAAAACCGGACCAGCCGCCATTAACTTCTCTTCATGTAACGGCCATATCACCCCCGACTTGAACCGCCTTTTACTGCGTATGTGTCTGTTTTGGTACATTTCGCGACGCTCCAGCACTGGAAACGCCCGGGATCCAA (double strand) [ccmA promoter]”, the binding result in data set [1] is “binds”.
On the same count and under the same terms, with “TTGGATCCAACACCCTATCCACTGAAGGTCTTGGCGGGCAAAAAACAAGCCGAGGATTATACCCGAGCTATGACCCTCGAGAA (double strand) [rpoD promoter]” the entry was “binds”.
On to “TTGGATCCGACGGACCCTCGTGGGGTGATAGCCCAAGCATCCGCCGTGTGCGAGGTACAACCATTGACCTGGCGCAATGAAGCAGCCTGATAGCAGACCGTTGGTCGAAGACTCTTCGGTCTACGTGTGCAGGGTGGCTGTTCTCGAGAA (double strand) [adhB-ΔIR promoter]”, for which the binding result in data set [1] is listed as “no binding”.
The same measure, in the same setting: as for “TTGGATCCGACGGACCCTCGTGGGTAGCTCGGATGCTTGGGTGATAGCCCAAGCATCCGCCGTGTGCGAGGTACAACCATTGACCTGGCGCAATGAAGCAGCCTGATAGCAGACCGTTGGTCGAAGACTCTTCGGTCTACGTGTGCAGGGTGGCTGTTCTCGAGAA (double strand) [adhB promoter]”, the entry is “binds”.
“TTGGATCCGGAAACACCAGATGCATGAGCCGACGACGGTCATCCGTAAAAACCATGACCAAAGGTAACAAGTGTGCTGCTGCATTGTTGCAAAGTTCATACCTTTTTGGCAGACCCTTTGCCTGTCAGATGACATCCATGTGACGTGGGGCACTACACGGCTGCCAGACGGGTCAGATCCAGGTGTGTCGCGAGACCGCCAAGGTGAATGAGCAGGGCTCGGCTATGCTTGCTCGCGGCGTTACATATTCTTCCCCCACTGAACAGGTGACAGTCCTCGAGAA (double strand) [PSPPH_2590 promoter]”: the binding entry in data set [2] is “binds”; in data set [3], “binds more weakly”.
On to “TTGGATCCGGAAACACCAGATGCATGAGCCGACGACGGTCATCCGTAAAAACCATGACCAAAGTGCATTGTTGCAAAGTTCATACCTTTTTGGCAGACCCTTTGCCTGTCAGATGACATCCATGTGACGTGGGGCACTACACGGCTGCCAGACGGGTCAGATCCAGGTGTGTCGCGAGACCGCCAAGGTGAATGAGCAGGGCTCGGCTATGCTTGCTCGCGGCGTTACATATTCTTCCCCCACTGAACAGGTGACAGTCCTCGAGAA (double strand) [PSPPH_2590-p-ΔIR]”, for which, in data set [2], the binding entry was “no binding”.
